In US20240043820:

How the values were obtained:
[1] = biological target: SpCas9 Mut 4110 N767E,Q771R,K772Q,K775D,R780K,Q844R,L847M,K848T,D850N,I852F,K913E,G915R,F916W,I917V,V922M (Streptococcus pyogenes) (UniProt Q99ZW2); assay: cell_activity; settings: yeast survival assay; PAM not stated
[2] = biological target: SpCas9 Mut 2.2 (TurboCas9) V842L,Q844R,F846Y,L847M,I852F (Streptococcus pyogenes) (UniProt Q99ZW2); assay: cell_activity; settings: HEK293T; 5% alleles unedited vs 36% for WT; PAM not stated

| Substance | activity (fold vs WT SpCas9) [1] | activity (fold vs WT SpCas9) [2] |
| --- | --- | --- |
| HIS3 gRNA ; HIS3 target site | 3.9 | – |
| ADE2 gRNA ; ADE2 target site | 2 | – |
| VEGFA gRNA ; VEGFA target site | – | 1.5 |
